# From patent US7422862B2, “Methods for identifying modulators of apoptosis” (The Burnham Institute, priority 2001, dated 2008)
# No end group written: not given here.
# What was measured:
# CSM14.1 cells = experiment: Apoptosis of CSM14.1 cells induced by various stimuli; format: cell-based, rat
# Experimental: (A-D) CMS14.1 neuronal cells were transfected with plasmids encoding Flag-HN peptide or Flag-control (27-amino-acid) peptide, together with GFP-encoding plasmid at 4:1 ratio. Cells were either cultured without further treatment (open bars) or subjected to various apoptotic stimuli for various times (dark bars), including (A) STS for 8 h (dark symbols=Flag-control; open symbols=Flag-HN), (B) Serum-deprivation for 72 h, (C) 10 joules/m2 Uvirradiation followed by 24 h culture, and (D) 50 ng/ml TNFa in […] for 24 h. Cells were then fixed and stained with DAPI to determine the percentage of apoptotic cells, evaluating=200 GFP-positive cells per sample (mean±SD; n=3). (inset) Lysates prepared from replicate cultures of transfected cells were normalized for total protein content and analyzed by immunoblotting using anti-Flag (top) and anti-tubulin (bottom) antibodies, confirming production of similar amounts of Flag-control and Flag-HN peptides. (E) SF268 cells were transfected with Humanin siRNA (HN-siRNA) (dark bars) or mutant siRNA containing two mismatches (mut-siRNA) as negative control (open bars). (Upper panel) After 72 hr, cell lysates were prepared and 100 ug was analyzed by immunoblotting using anti-HN and anti-tubulin (as a loading control) antibodies. (Lower panel) At 72 hr after siRNA transfection, SF268 cells were cultured with 0.1 μM STS for 8 hrs, then % apoptosis was determined (mean+std dev; n=3). (F) HN protects against Bax- but not Bak-induced apoptosis. CSM14.1 neuronal cells were co-transfected with pcDNA3-HA-Bax or pcDNA3-HA-Bak together with plasmids encoding with GFP (indicated by “-”), GFP-HN, or GFP-HN(C8P). Apoptosis (%) was measured 48 hrs later among GFP-positive cells. (G) Humanin inhibits STS-induced apoptosis in wild type HCT116 cells, but not HCT116 BAX -/- cells. HCT116 cells heterozygous or homozygous for BAX gene inactivation were transfected with plasmids encoding GFP (open bars) or GFP-HN (dark bars). After 24 h, cells were cultured without (C) or with STS (0.2 μM for wild type and 1.0 μM for Bax - /- cells) for 8 h, then % apoptosis was determined for GFP-positive cells (mean+std dev; n=3). (inset) Lysates from the cells were analyzed by immunoblotting (20 ug) using anti-Bax (top) and anti-Bid (bottom) antibodies. (H) HN prevents Bax-induced cell death in yeast. Cells were co-transformed with YEp51-Bax (encoding Bax under control of a GAL10 promoter) and plasmid control (C) or plasmids encoding Humanin or Humanin(C8P) fusion polypeptides. Cells initially grown in glucose-containing medium were streaked onto either glucose (top) or galactose (bottom) plates to suppress or induce Bax expression, respectively.
# For these experiments, Flag-epitope tagged Humanin (Flag-HN) or Flag control polypeptides were expressed in CSM14.1 cells, an immortalized rat hippocampal neuronal cell line that has been used as a model for neuronal apoptosis studies (Kermer et al., Cell Death Differ. 9:405-413 (2002)). Apoptosis of CSM14.1 cells induced by Staurosporine (STS), UV-irradiation, and serum-deprivation was suppressed by Flag-HN (FIG. 6A-C). […] Note that at higher doses of STS (FIG. 6A), Humanin-mediated protection was overcome, indicating Humanin-insensitive mechanisms of apoptosis induction exist, even when using a mitochondria-dependent death stimuli.
# Apoptosis assays were performed as follows. […]
# [1] = previously reported (Hashimoto et al.); cited from earlier work
# Bax [2] = molecular target: T1, Bax (Homo sapiens, UniProt Q07812); experiment: Bax-induced apoptosis in transfected neuronal cells (DAPI staining); format: cell-based; set-up: expressed in transfected cells
# Experimental: (A) HEK293T cells were transfected with pcDNA3-HA-Bax together with plasmids encoding GFP, GFP-HN(N), or GFP-HN(M). Cell lysates were immunoprecipitated with polyclonal anti-GFP antibody. Immunoprecipitates (IP) or cell lysates were analyzed by immunoblotting using anti-HA or anti-GFP antibodies, respectively. (B) CSM14.1 neuronal cells were co-transfected with pcDNA3-HA-Bax together with plasmids encoding GFP, GFP-HN(N), or GFP-HN(M). Percent apoptosis was determined 48 h later by DAPI staining (mean±SD; n=3).
# (§1) Rat neuronal cell line CSM14.1 cells were transfected with various plasmids using the Lipofectamine reagent (Invitrogen). For transfection, 10×10^5 cells were plated per well using 6 well plates. Each well received 1 μg DNA plus […] of Lipofectamine. After 24 hours of transfection, the percentage of cell death was determined using 4′-6-diamidino-2-phenylindole (DAPI) staining. […] The data shown were obtained using the cytosolic form of Humanin; however, both cytosolic and mitochondrial forms of Humanin were tested and the results were the same.
# (§2) Apoptosis assays were performed as follows. Both floating and adherent cells (after trypsinization) were collected 48 hr after transfection, fixed, and stained using 4′,6-diamidine-2′-phenylindole dihydrochloride (DAPI) for assessing apoptosis based on nuclear fragmentation and chromatin condensation (Fields and Song, supra (1989)).
# Since Humanin co-immunoprecipitates with Bax but not Bak, the effects of Humanin over-expression on apoptosis induced by these members of the Bcl-2 family was compared. […] Similar results were obtained regardless of whether Humanin was fused to the N- or C-terminus of GFP, with both of these GFP fusion polypeptides localizing to the cytosol of cells.
# Bax [3] = molecular target: T1, Bax; experiment: Co-immunoprecipitation of GFP-Humanin fusion polypeptides with Bax in transfected cells; format: binding; set-up: expressed in transfected cells; host or cells: HEK293T; key to Bax binding: +: ability to bind Bax was determined by co-immunoprecipitation assay; −: lacked Bax-binding activity; conditions: for Bax binding: GFP-fusion polypeptides, co-immunoprecipitation
# Description: Humanin (HN) cDNA was sub-cloned into a Green Fluorescence Protein (GFP) expression vector GFP-Cl at the Xhol/Hind III sites, producing a GFP-HN fusion polypeptide. GFP and GFP-HN were transfected into 293T cells with pcDNA3-HA-Bax. Cell lysates from these cells were immunoprecipitated with anti-GFP antibody and subsequently blotted with anti-HA antibody. The lysates were also blotted with ani-GFP antibody to confirm polypeptide expression. […] The data shown were obtained using the cytosolic form of Humanin; however, both cytosolic and mitochondrial forms of Humanin were tested and the results were the same.
# Co-immunoprecipitation assays were performed using Humanin polypeptides expressed as fusion polypeptides with the Green Fluorescent Protein (GFP) in human cells. Wild-type Humanin fused to GFP is referred to as GFP-HN and a mutant form of Humanin, where the cysteine at position 8 is replaced with proline, fused to GFP is referred to as GFP-C8P. […] Immunoblot analysis of lysates of the transfected cells confirmed production of all proteins. In addition, GFP-HN also coimmunoprecipitated endogenous Bax from cell lines, which contain relatively high levels of the Bax protein.
# Immunoblotting and immunoprecipitations were performed as follows. Immunoblotting was performed as described previously (Fields and Song, Nature 340:245-246 (1989)). For co-immunoprecipitations, cells were cultured in 50 uM […] Valine Alanine Asparate fluoromethyl-ketone (zVAD-fmk) to prevent apoptosis. Cells were suspended in lysis buffer (50 mM Tris-HCl, pH7.4; 150 mM NaCl; 20 mM EDTA; 50 mM NaF; 0.5% NP-40; 0.1 mM Na3VO4; 20 ug/ml Leupeptin; 20 ug/ml Aprotinin; 1 mM DTT; and 1 mM PMSF). Lysates (200 ul diluted in 1 ml final volume of lysis buffer) were cleared by incubation with 15 ul of protein G-Sepharose 4B (Zymed) and then incubated with 15 ul of polyclonal antibody and 15 ul of protein G at 4° C. overnight. Beads were then washed 4 times with 1.5 mls lysis buffer before boiling in Laemmli sample buffer and performing SDS-PAGE/immunoblotting.
# (§3) In order to explore whether a correlation exists between Humanin binding to Bax and Humanin-mediated suppression of apoptosis, Bax was co-expressed with various GFP-fusion polypeptides encoding wild-type, full-length Humanin or various truncation and site-specific mutants of Humanin (Table 1). Expression of all GFP-fusion polypeptides was confirmed by immunoblotting, and ability to bind Bax was determined by co-immunoprecipitation assay. Each Humanin mutant was scored for ability to suppress apoptosis induced by Bax over-expression by >50% using a 3:1 ratio of HN:Bax plasmid DNA. […] Based on these studies, an active region of the 24 amino-acid Humanin peptide, mapped to residues 7-17.
# Bax [4] = molecular target: T1, Bax; experiment: Suppression of apoptosis induced by Bax over-expression (Humanin mutants); format: cell-based; set-up: expressed in transfected cells; host or cells: HEK293T; conditions: GFP-fusion polypeptides, 3:1 ratio of HN:Bax plasmid DNA
# Experimental: as §2, §3
# Cell culture and transfections were performed as follows. CSM14.1, HCT116, Cos-7, and SF268 cells were cultured in DMEM high glucose media (Irvine Scientific, Santa Ana, Calif.) containing 10% fetal bovine serum (FBS). PC-3 cells were cultured with RPMI 1640 media containing 10% FBS. Transfection of cells was performed using SuperFect (Qiagen, Chatsworth, Calif.) or LipofectaminePLUS reagent ([…]).
# t-Bid = molecular target: T2, t-Bid (Homo sapiens, UniProt P55957); experiment: Bid-induced apoptosis in CSM14.1 cells (DAPI staining); format: cell-based; set-up: expressed in transfected cells; host or cells: CSM14.1 rat hippocampal neuronal cells; conditions: 24 hours after transfection
# T2 sequence (P55957 61-195 limits assumed): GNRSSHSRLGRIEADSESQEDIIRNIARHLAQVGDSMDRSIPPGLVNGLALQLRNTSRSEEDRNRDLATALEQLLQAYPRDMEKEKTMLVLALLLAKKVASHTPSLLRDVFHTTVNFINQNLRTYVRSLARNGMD
# Experimental: Apoptosis was examined by DAPI staining. The data shown were obtained using the cytosolic form of Humanin; however, both cytosolic and mitochondrial forms of Humanin were tested and the results were the same.
# as §1
# T1 sequence (Q07812 whole entry, species assumed): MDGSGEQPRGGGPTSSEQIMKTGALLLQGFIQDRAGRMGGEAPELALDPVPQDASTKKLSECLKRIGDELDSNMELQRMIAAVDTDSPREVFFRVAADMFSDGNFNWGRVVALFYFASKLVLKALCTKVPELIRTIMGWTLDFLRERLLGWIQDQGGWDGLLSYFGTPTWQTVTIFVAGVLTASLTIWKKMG
substance,measurement,setting,value
"Flag-HN: Flag-epitope tagged Humanin expressed in cells (MAPRGFSCLLLLTSEIDLPVKRRA; also: Flag epitope tag; UniProt Q8IVG9 1-24, looked up)",apoptosis induced by UV-irradiation,CSM14.1 cells,suppressed
same,apoptosis induced by serum-deprivation,CSM14.1 cells,suppressed
same,apoptosis induced by TNF,CSM14.1 cells; Bax-independent death stimulus,not suppressed
same,apoptosis induced by Staurosporine (STS),CSM14.1 cells; STS 8 h,suppressed
same,protection at higher doses of STS,CSM14.1 cells; higher doses of STS,overcome
"GFP-HN(C8P): mutant Humanin, cysteine at position 8 replaced with proline, fused to GFP (MAPRGFSPLLLLTSEIDLPVKRRA; also: fused to GFP; UniProt Q8IVG9 1-24, looked up, variant C8P)",anti-apoptotic activity when expressed in cells,[1],lack anti-apoptotic activity
same,suppression of apoptosis induced by Bax,"Bax [2]; CSM14.1 or PC-3 cells, transient co-transfection",did not suppress
same,co-immunoprecipitation with tagged Bax,"Bax [3]; 293T/HEK293T cells, anti-GFP immunoprecipitation",did not
same,Bax binding,Bax [3],−
same,Bax suppression,Bax [4],− (failed to protect against Bax-induced apoptosis)
"Humanin (C8A): mutant form of Humanin where the cysteine at position 8 was mutated to an alanine (MAPRGFSALLLLTSEIDLPVKRRA; also: fused to GFP; UniProt Q8IVG9 1-24, looked up, variant C8A)",Bax-induced apoptosis,"Bax [2]; CSM14.1 cells, 24 hours after transfection, DAPI",not able to decrease
same,Bid-induced apoptosis,t-Bid,not able to decrease
"L9R: GFP-fusion of Humanin site-specific mutant L9R (MAPRGFSCRLLLTSEIDLPVKRRA; also: fused to GFP; UniProt Q8IVG9 1-24, looked up, variant L9R)",anti-apoptotic activity when expressed in cells,[1],lack anti-apoptotic activity
same,Bax binding,Bax [3],−
same,Bax suppression,Bax [4],− (failed to protect against Bax-induced apoptosis)
